What was measured:
GST-S6K11-365 = GST-S6K11-365 (Rattus norvegicus, UniProt P67999); assay: Surface plasmon resonance, S6K1 binding to tail peptides; parameters: made in house; host or cells: COS cells (printed 'COST'), co-transfected with pCMV5-myc-PDK1
Experimental: (§1) FIG. 13. The tail phosphate synergistically enhances the ability of the HM phosphate to activate S6K, dependent on the tail phosphate-binding site. (A) The kinase activity of purified kinase domain of S6K1 (S6K11-364), pre-phosphorylated by PDK1 in the activation loop, was determined in the presence of increasing concentrations of synthetic S6K1 tail peptide (residues 366-395) that was either non-phosphorylated (S371/T389), phosphorylated at Ser371 (pS371/T389) or Thr389 (5371/pT389) or phosphorylated at both sites (pS371/pT389). (B) The kinase activity of S6K11-364 and S6K11-364K144N, either pre-phosphorylated or not by PDK1, was determined in the absence or presence of 90 μM S371/pT389 or pS371/pT389. (C) pS371/pT389 S6K1 tail peptide was biotinylated and used to coat streptavidin Sensor Chips. The chips were thereafter analyzed for binding to purified GST-S6K11-365 or GST-56K11-365K144N. (A-C) Experiments were repeated at least 3 times and activity data (expressed as percent) are means±SD.
Sixty 146 cm^2 dishes with COST cells were co-transfected with pEBG-2T-S6K1-365 and pCMV5-myc-PDK1 (ratio 3:1) using calcium phosphate precipitation or with pEBG-2T-PKCζ and pCMV5-myc-PDK1 (ratio 3:1) using Fugene HD according to the manufacturers Instructions. Two days after transfection, the cells were harvested in lysis buffer as described above. […]

S6K11-364K144N = target: T1, S6K11-364K144N (Rattus norvegicus, UniProt P67999, K167N); assay: S6K1 in vitro reconstitution kinase assay with tail peptides; assay type: biochemical; conditions: peptide 90 μM
T1 construct: Purified HA-S6K1-364 was incubated with synthetic S6K1 (rat) tail peptides; made in house; host or cells: COS7; anti-HA immunoprecipitate
T1 sequence (P67999 24-387 K167N): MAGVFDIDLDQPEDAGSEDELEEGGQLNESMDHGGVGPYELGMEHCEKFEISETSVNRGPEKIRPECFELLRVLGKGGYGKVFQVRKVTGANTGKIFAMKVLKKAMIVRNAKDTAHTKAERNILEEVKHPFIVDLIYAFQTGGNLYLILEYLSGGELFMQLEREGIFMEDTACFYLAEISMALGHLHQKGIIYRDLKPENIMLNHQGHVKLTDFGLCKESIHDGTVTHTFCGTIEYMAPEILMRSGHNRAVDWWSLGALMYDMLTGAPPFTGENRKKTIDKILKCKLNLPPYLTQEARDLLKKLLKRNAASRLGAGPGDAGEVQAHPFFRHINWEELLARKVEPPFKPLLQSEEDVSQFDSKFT
Experimental: as §1
We established an in vitro reconstitution assay that could test a direct activation of the AGC kinase domain by the tail phosphate and characterize its cooperation with the HM and activation loop phosphates. […] Subsequently, the kinase activity of S6K11-364 was determined. […]

Sequence of GST-S6K11-365 (P67999 24-388): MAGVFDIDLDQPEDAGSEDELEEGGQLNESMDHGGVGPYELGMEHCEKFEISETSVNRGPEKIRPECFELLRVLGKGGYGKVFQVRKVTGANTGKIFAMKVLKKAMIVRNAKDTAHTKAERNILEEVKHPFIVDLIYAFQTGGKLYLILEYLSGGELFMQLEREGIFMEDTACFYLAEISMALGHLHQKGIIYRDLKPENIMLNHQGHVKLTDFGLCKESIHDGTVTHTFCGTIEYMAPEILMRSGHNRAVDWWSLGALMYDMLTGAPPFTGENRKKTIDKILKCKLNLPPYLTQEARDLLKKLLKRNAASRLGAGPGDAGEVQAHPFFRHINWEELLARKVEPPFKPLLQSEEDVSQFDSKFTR

Row | specific binding of S6K11-365 or S6K11-365K144N (in words) (GST-S6K11-365) | activation of S6K11-364K144N (in words) (S6K11-364K144N) | Substance
1 | No specific binding |  | S371/T389: synthetic S6K1 tail peptide (residues 366-395), non-phosphorylated
2 |  | activated normally | S371/pT389: synthetic S6K1 tail peptide (residues 366-395) phosphorylated in the HM
